# According to publication PMC7072561:
# Settings: ubiquitination at K63
substance,measurement,value
ubiquitin (HA-tagged): ubiquitin K63R,other,decreases
